The values below come from paper PMC4858740 (2016).

In this assay the target is T1, CD45RO ECD (human).
T1 chain: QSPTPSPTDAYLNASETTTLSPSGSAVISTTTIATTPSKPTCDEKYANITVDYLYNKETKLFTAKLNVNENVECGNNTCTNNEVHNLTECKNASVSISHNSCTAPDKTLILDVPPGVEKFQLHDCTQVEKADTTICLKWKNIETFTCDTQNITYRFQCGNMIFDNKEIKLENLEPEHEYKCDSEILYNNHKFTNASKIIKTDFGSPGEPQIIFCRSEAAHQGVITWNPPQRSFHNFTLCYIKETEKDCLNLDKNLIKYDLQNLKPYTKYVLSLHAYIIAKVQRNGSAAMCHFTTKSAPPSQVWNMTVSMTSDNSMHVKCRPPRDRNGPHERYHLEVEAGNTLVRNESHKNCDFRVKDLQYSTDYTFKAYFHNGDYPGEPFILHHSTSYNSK
Put plainly: SPR. Background: Surface plasmon resonance follows binding to a sensor surface in real time, without labels.

A word on the Kd: it is the constant that tells how readily two partners part at equilibrium.

B1: HAdV-D43 E3/49K (Fc fusion)
chain: QIEHEKQSVQWGKNITLVGPNDKPVEWHGPRDQLCKGKQILHPEFNHTCNEQNLTLLFVNNTFQGIYYGIRNDGRGMKQIQLTVVAPPASTRKPLSKPKQVNVQYGHNVTLEGPPGIPIDWLGPTNQLCKGKEILHPEINHTCNVQNLTLLFVNYTHRGAYFGFNKDGTDRHHYEVTILDGFTNAGQTKEESVSDKSKGKTSSKEKKTQKNNSQRNDDVKELDFPSGSNQTLVGPPGSKVDWYTTKNGDFTKLCDGLNGPKNLCNYQNLTLRNVSRQDEGTYFGSNEQSKHYRVTVYTKPRNQTKRIQPYTTKGTTKSTLGNHSFELQLADDQSNQQDQQIPSTT
B1 showed a Kd of 0.38 nM. In other words, the sub-nanomolar range.

B2: HAdV-D58 E3/49K (Fc fusion)
chain: SQAGFHTINATWWANITLVGPSDTPVTWYDKQGMQFCDGNTVKNPQIRHECNEQNLTLIHVNKTHERTYMGYNRQSTHKEDYKVIVIPPPPATVKPQSGPEYVYVNMGENKTLVGPPGIPVTWYDGEGNKFCDGEKVEHAEFNHTCDVQNLTLLFINLTHDGAYLGYNHQGTKRTWYEVVVTDGFPKSGEMKIEDQSRQTEQKQTGQKQNEHKQGGQKQEGQKETSQKKANDKQKATHRRPSKLKPHTPEAKLITVSSGSNLTLLGPDGKVTWYDDDLKRPCEPGYKLNCKCDNQNLTLINVTKLYEGVYYGTNDGGNGKRYRVKVNTTNSQNVKIQPYTRPTTPDQKHRFELQIDYNQDNDKIPSTT
In turn, B2 displayed a Kd of 0.38 nM.

B3: HAdV-D37 E3/49K (Fc fusion)
chain: GFHTINATWWANITLVGPPDTPVTWYDTQGLWFCNGSRVKNPQIRHTCNDQNLTLIHVNKTYERTYMGYNRQGTKKEDYKVVVIPPPPATVKPQPEPEYVFVYMGENKTLEGPPGTPVTWFNQDGKKFCEGEKVLHPEFNHTCDKQNLILLFVNFTHDGAYLGYNHQGTQRTHYEVTVLDLFPDSGQMKIENHSEETEQKNDEHHNWQKQGGQKQGGQKTNQTKVNDRRKTAQKRPSKLKPATIEAMLVTVTAGSNLTLVGPKAEGKVTWFDGDLKRPCEPNYRLRHECNNQNLTLINVTKDYEGTYYGTNDKDEGKRYRVKVNTTNSQSVKIQPYTRQTTPDQEHKFELQFETNGNYDSKIPSTT
For the molecule B3, binding was put at a Kd of 0.11 nM.

B4: HAdV-D19a E3/49K (Fc fusion)
chain: B3 chain
On to B4, for which the dissociation constant Kd is 0.06 nM.

B5: HAdV-D28 E3/49K (Fc fusion)
chain: QAVHVNLEICYGCNGTLIGPPKTPVEWYDGRGHKLCAGTDTFRKELNHTCNLQNMTLTFVNLTHKGTYYGFGSDNKNSRVYQVTIKPPVLTTRRPLLKPEDVVITKGNNKTLVGPPDTPVDWYDGSGHKLCKGKEVHYPELNHTCNEQNLTLIFVNATFKGTYYGFRKDGTDKKEYRVTIDDLYAKQLKQEKDEKPRSGHDKQKSKSQERQNPKTEERHEHRDVVKEVSFRTGTNQTLVGPPGSNVDWLKIGNGGTFSELCKGDDKHYSCNSQNLTIINVTRSDEGSYYGSNDDSAHYRVSVYDPVQKKRVMKIQPHTTKTTTEGTTKSSTNESDENFALQQGNNGENNQSDETNIPS
On to B5, for which binding was put at a Kd of 0.33 nM.

B6: HAdV-D24 E3/49K (Fc fusion)
chain: GIHIINATWWDNITLVGPSDTPVTWYDGKGLQFCDGSTVKNPQIRHTCNDQNLTLIHVNKTHERTYMGYRHDSKGKVDYKVTVIPPPPATVKPQPDPENVFVYMGNNVTLVGPPGIPVSWYYHNGTQFCDGDKIIHPEFNHTCDKQNLTLLFVNFTHDGGYLGFNYKGTQRIQYEVIVLDRFPNSGQMKIEEQSEETEQKHTEHNKAGQKQGIDTNQKKANNRQKPSQRPSRRRPTNTPETKQLTVSIGSNLTLVGPDGKVTWYDGDLKRPCEEQNYRLPHQCSAQNLTLINVTKSHEGTYYGTNDKDESKRYRVKVNTTNSQAVKINPYTRPTTPDQKHRFELQIENNANDEESKIPSTT
B6 returned a dissociation constant Kd of 0.08 nM.
